# Measurements published in patent US20230235075A1 (published 2023).
# T1: Human CD93 recombinant protein (Sino Biological Inc, Catalog #12589-H08H) (human, UniProt Q9NPY3 22-580, biotinylated with EZ-LINK NHS-PEG4 biotin in the Octet assays)
# T1 chain: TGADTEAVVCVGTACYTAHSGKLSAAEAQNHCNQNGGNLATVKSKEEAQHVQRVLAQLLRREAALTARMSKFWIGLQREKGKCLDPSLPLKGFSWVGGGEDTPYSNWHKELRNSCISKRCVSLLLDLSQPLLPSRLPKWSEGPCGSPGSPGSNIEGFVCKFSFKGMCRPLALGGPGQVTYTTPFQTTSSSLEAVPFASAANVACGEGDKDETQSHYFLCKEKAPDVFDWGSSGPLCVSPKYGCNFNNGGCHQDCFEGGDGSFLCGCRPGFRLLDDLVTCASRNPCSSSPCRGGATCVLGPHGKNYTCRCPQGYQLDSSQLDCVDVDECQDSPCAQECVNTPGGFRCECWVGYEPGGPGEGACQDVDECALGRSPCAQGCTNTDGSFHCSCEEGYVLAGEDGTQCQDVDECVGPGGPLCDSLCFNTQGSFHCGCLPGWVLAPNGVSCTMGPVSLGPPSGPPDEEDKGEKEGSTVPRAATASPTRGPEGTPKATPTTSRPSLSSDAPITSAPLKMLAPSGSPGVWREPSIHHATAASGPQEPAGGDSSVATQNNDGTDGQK
# T2: cynomolgus CD93 protein (made in-house) (cynomolgus, UniProt A0A2K5VH53 22-580, biotinylated with EZ-LINK NHS-PEG4 biotin in the Octet assays)
# T2 chain: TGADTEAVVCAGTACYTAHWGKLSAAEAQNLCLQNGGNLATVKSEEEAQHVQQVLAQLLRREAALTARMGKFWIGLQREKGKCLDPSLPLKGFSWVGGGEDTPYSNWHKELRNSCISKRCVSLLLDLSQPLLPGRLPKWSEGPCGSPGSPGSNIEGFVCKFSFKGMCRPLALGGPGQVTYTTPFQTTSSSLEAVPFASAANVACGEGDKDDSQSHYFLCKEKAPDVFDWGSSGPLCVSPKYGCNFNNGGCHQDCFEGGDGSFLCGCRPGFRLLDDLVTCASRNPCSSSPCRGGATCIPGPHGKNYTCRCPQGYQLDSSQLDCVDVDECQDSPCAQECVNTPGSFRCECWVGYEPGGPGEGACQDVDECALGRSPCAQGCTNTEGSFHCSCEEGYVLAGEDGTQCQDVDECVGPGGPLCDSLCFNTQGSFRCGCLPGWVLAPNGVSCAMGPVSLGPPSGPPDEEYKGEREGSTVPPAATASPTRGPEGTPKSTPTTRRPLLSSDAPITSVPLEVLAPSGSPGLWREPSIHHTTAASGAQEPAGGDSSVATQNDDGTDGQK
# Assays:
# [1] = target: T1, Human CD93 recombinant protein (Sino …); assay: BLI (Octet)
# [2] = target: T1, Human CD93 recombinant protein (Sino …); assay: Octet
# [3] = target: T1, Human CD93 recombinant protein (Sino …); assay: ELISA
# [4] = target: T1, Human CD93 recombinant protein (Sino …); assay: ELISA
# [5] = target: T1, Human CD93 recombinant protein (Sino …); assay: Octet BLI
# [6] = target: T1, Human CD93 recombinant protein (Sino …); assay: ELISA
# [7] = target: T1, Human CD93 recombinant protein (Sino …); assay: ELISA; unit printed as pmM
# [8] = target: T1, Human CD93 recombinant protein (Sino …); assay: BLI
# [9] = target: T2, cynomolgus CD93 protein (made in-house); assay: BLI
Kd [2] [nM],EC50 [4] [nM],EC50 [6] [nM],Binder,also measured
–,–,0.153,"17B10 (hybridoma) (antibody, V domains shown) VH: QVQLQQSGPELVKPGASVKISCKASGYAFSSYWLNWVKQRPGKGLEWFGRIYPGDGDTDYNGKFKGKATLTADKSSSTAYMQLRSLTSEDSAVYFCVRGDGYWAMDYWGQGTSVTVSS VL: DIVMTQAAFSNPVTLGTSASISCRFSKSLLHSNGITYLYWYLQKPGQSPQLLIYQMSNLASGVPDRFSSSGSGTDFTLRISRVEAEDVGVYYCAQNLELPWTFGGGTKLEIK",–
–,–,0.213,"Humanized 17B10 (VH3VL3, i.e., H3L3) (antibody, V domains shown) VH: QVQLVQSGPEVKKPGESLKISCKASGYAFSSYWLNWVRQMPGKGLEWMGRIYPGDGDTDYNGKFKGQVTISADKSSGTAYLQLSSLKASDTAVYFCVRGDGYWAMDYWGQGTLVTVSS VL: DIVMTQSPDSLAVSLGERATINCRFSKSLLHSNGITYLYWYQQKPGQPPKLLIYQMSNLASGVPDRFSGSGSGTDFTLTISSLQAEDVAVYYCAQNLELPWTFGGGTKLEIK",–
0.334,0.112,–,"16E4 (hybridoma) (antibody, V domains shown) VH: QVQLQQPGAELVKPGASVKLSCKASGYTFTSYWMHWVKQRPGQGLEWIGEIDPSASYTYYNQKFKGKATLTVDKSSSTAYMQLSSLTSEDSAVYYCARSVYYGNKYFDVWGAGTTVTVSS VL: not shown",EC50 [7]: 0.112 nM; Kd [8]: 0.447 nM; Kd [9]: 0.446 nM
0.135,0.041,0.041,"16E4-hIgG1 (antibody, V domains shown) VH: QVQLQQPGAELVKPGASVKLSCKASGYTFTSYWMHWVKQRPGQGLEWIGEIDPSASYTYYNQKFKGKATLTVDKSSSTAYMQLSSLTSEDSAVYYCARSVYYGNKYFDVWGAGTTVTVSS VL: not shown",EC50 [3]: 0.022 nM; Kd [5]: 0.135 nM

# More lines, now with the values behind:
Binder,Kd [2] [nM],EC50 [4] [nM],EC50 [6] [nM],also measured
"10B1 (antibody, V domains shown) VH: QVQLKQSGPGLVQPSQSLSITCTVSDFSLSSFGVNWVRQPPGKGLEWLGVIWSGGSTDYNVAFISRLSISKDNSKSQVFFKMNNLQADDTAIYYCARNWRYDGYFYAMDYWGQGTSVTVSS VL: DIVMTQSQKFMSTSTGDRVSVTCKASQNVGTNVAWYQQKPGQSPKALIYSASYRFIGVPDRFTGSGSGTDFTLTITNVQSEDLAEYFCQQYNRNPITFGSGTKLEIK",–,–,–,Kd [1]: 0.904 nM
"7F3 (hybridoma) (antibody, V domains shown) VH: QVQLQQSGADLVRPGASVKLSCKASGYTFTDYEMHWVKQTPVYGLEWIGGIDPETGDTAYNQNFKGKATLTADKSSSAAYMELRSLTSEDSAVYYCTNYGNLYYYAMDYWGQGTSVTVSS VL: ENVLTQSPAIMSASPGEKVTMTCRASSSVSSSYLHWYQQKSGASPKLWIYSTSNLAFGVPARFSGSGSGTSYSLTISSVEAEDAATYYCQQYSGYPLTFGSGTKLEIK",0.493,0.0667,–,Kd [1]: 1.26 nM; EC50 [3]: 0.0667 nM
"7F3-hIgG1 (antibody, V domains shown) VH: QVQLQQSGADLVRPGASVKLSCKASGYTFTDYEMHWVKQTPVYGLEWIGGIDPETGDTAYNQNFKGKATLTADKSSSAAYMELRSLTSEDSAVYYCTNYGNLYYYAMDYWGQGTSVTVSS VL: ENVLTQSPAIMSASPGEKVTMTCRASSSVSSSYLHWYQQKSGASPKLWIYSTSNLAFGVPARFSGSGSGTSYSLTISSVEAEDAATYYCQQYSGYPLTFGSGTKLEIK",0.588,0.041,–,Kd [5]: 0.588 nM
"recombinant parental 17B10-hFc (antibody, V domains shown) VH: QVQLQQSGPELVKPGASVKISCKASGYAFSSYWLNWVKQRPGKGLEWFGRIYPGDGDTDYNGKFKGKATLTADKSSSTAYMQLRSLTSEDSAVYFCVRGDGYWAMDYWGQGTSVTVSS VL: DIVMTQAAFSNPVTLGTSASISCRFSKSLLHSNGITYLYWYLQKPGQSPQLLIYQMSNLASGVPDRFSSSGSGTDFTLRISRVEAEDVGVYYCAQNLELPWTFGGGTKLEIK",–,–,0.0167,–
